This passage reports Kd results from paper PMC7369618 (Redox Biology, 2020).

By Kd is commonly meant the concentration at which binding is half-saturated. High values mean weaker binding, low ones tighter binding.

In the experiment the target is EGFP-PKM2 (UniProt P14618 1-531). The experiment is described as follows: MST.
Chain of EGFP-PKM2 (P14618 whole entry): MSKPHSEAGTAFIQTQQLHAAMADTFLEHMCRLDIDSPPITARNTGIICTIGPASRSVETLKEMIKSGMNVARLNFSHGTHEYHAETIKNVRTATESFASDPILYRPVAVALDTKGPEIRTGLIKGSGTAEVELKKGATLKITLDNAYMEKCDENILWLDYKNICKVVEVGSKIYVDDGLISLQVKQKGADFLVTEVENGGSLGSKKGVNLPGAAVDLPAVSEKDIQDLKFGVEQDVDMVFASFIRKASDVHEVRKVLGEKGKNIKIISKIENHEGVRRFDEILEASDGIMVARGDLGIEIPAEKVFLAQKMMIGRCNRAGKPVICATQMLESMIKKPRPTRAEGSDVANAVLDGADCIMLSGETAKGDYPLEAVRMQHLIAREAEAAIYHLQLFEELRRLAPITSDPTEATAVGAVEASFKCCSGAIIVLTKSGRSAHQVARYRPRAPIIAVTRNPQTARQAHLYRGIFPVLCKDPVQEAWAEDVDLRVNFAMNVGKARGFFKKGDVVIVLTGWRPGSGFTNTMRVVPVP

B1: Annexin A5 (sc-4252, Santa Cruz Biotechnology) (natural protein)
chain: MAQVLRGTVTDFPGFDERADAETLRKAMKGLGTDEESILTLLTSRSNAQRQEISAAFKTLFGRDLLDDLKSELTGKFEKLIVALMKPSRLYDAYELKHALKGAGTNEKVLTEIIASRTPEELRAIKQVYEEEYGSSLEDDVVGDTSGYYQRMLVVLLQANRDPDAGIDEAQVEQDAQALFQAGELKWGTDEEKFITIFGTRSVSHLRKVFDKYMTISGFQIEETIDRETSGNLEQLLLAVVKSIRSIPAYLAETLYYAMKGAGTDDHTLIRVMVSRSEIDLFNIRKEFRKNFATSLYSMIKGDTSGDYKKALLLLCGEDD
B1 gave a Kd of 0.001 pM.
